In US20180334496A1 one finds EC50 (read off the curve) data, which are given here for one substance.

In the experiment the target is Recombinant His-tagged FcγRIIb (UniProt P31994). As to the kind of experiment: ELISA, antibody coated at 2 uM, His-tagged FcγRIIb titrated 1:3 from 2 uM, HRP anti-His; the concentration is that of the receptor. For orientation: ELISA stands for enzyme-linked immunosorbent assay.
Sequence of Recombinant His-tagged FcγRIIb (P31994 46-217 limits assumed): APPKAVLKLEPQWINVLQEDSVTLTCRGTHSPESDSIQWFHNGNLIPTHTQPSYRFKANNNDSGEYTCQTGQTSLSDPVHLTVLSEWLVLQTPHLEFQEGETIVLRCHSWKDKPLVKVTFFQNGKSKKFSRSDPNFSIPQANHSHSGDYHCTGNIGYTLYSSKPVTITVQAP

As to Avastin (antibody), the EC50 (read off the curve) stood at 70 nM.

Broadly, the EC50 (read off the curve) is the concentration that produces a half-maximal response.
